Measured values taken from PMC7688135, “Two cis-regulatory SNPs upstream of ABCG2 synergistically cause the blue eggshell phenotype in the duck”.

T1: CTCF (Homo sapiens, UniProt P49711 1-727)
T1 sequence: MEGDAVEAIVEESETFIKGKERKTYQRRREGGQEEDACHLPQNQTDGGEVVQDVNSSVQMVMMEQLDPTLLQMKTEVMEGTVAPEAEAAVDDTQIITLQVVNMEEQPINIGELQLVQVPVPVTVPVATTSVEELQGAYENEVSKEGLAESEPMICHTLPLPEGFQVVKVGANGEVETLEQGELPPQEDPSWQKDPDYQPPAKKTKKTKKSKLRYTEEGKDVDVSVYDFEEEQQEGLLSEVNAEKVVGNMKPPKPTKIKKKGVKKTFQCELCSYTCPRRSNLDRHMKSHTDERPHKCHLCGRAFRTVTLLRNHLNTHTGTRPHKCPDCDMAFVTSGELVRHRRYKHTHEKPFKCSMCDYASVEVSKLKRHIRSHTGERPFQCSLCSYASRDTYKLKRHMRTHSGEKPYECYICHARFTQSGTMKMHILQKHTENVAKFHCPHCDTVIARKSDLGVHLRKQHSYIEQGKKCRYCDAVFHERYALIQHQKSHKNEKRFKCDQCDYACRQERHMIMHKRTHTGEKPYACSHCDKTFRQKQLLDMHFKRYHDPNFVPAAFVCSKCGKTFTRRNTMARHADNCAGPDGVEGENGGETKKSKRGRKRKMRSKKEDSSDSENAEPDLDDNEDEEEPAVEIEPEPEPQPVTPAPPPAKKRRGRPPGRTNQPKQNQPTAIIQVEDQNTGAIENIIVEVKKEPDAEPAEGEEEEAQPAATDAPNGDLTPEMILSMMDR

B1: Blue-M5 (A allele) (dsDNA)
DNA 1: ACTTCTGCCACTAGAGGCAGGAGGG
DNA 2: CCCTCCTGCCTCTAGTGGCAGAAGT
B2: White-M5 (G allele) (dsDNA)
DNA 1: ACTTCTGCCACTGGAGGCAGGAGGG
DNA 2: CCCTCCTGCCTCCAGTGGCAGAAGT

Tests used:
CTCF [1] = biological target: T1, CTCF; experiment: EMSA supershift; anti-CTCF antibody; supershift evident; Buffer, salt, pH and temperature not given; 40 pmol biotin probe, 200-fold cold competitor, 5% non-denaturing PAGE, LightShift Chemiluminescent EMSA kit; settings: protein: recombinant; label: 5'-biotin on strand 1; blunt
CTCF [2] = biological target: T1, CTCF; experiment: EMSA supershift; anti-CTCF antibody; Buffer, salt, pH and temperature not given; 40 pmol biotin probe, 200-fold cold competitor, 5% non-denaturing PAGE, LightShift Chemiluminescent EMSA kit; settings: protein: recombinant; label: 5'-biotin on strand 1; blunt

Binder	binding result (CTCF [1])	binding result (CTCF [2])
B1	binds	
B2		no binding
